The numbers were not newly measured in article PMC9843440, which cites them from elsewhere.

pKd: −log10 of the molar value.

The target of this data set is IκBα (Homo sapiens) (UniProt P25963).
UniProt P25963, sequence (P25963 whole entry): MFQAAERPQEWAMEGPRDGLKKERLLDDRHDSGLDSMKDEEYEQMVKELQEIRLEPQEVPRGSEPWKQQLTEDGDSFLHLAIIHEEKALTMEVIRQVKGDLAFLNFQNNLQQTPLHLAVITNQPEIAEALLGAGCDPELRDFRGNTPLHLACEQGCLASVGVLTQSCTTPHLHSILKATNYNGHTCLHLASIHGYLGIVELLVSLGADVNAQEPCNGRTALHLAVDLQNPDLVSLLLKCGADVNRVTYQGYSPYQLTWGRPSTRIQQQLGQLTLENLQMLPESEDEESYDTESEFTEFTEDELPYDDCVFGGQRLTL

IKKβ (from UniProt O14920): the pKd was 7.25.
